{"source": "patent US20210063414A1", "about": "“METHODS FOR PREVENTING AND/OR TREATING BONE LOSS CONDITIONS BY MODULATING IRISIN” (Dana-Farber Cancer Institute, Inc., priority 2018, published 2021)", "molecules": {"B1": {"name": "irisin: secreted cleaved form of FNDC5; recombinant human/mouse irisin with C-terminal his tag produced in HEK293 cells (protein)", "chain": "DSPSAPVNVTVRHLKANSAVVSWDVLEDEVVIGFAISQQKKDVRMLRFIQEVNTTTRSCALWDLEEDTEYIVHVQAISIQGQSPASEPVLFKTPREAEKMASKNKDEVTMKE", "modifications": "left off: small tags and cut ends", "notes": "secreted cleaved form of FNDC5; recombinant human/mouse irisin with C-terminal his tag produced in HEK293 cells"}}, "assay_in_all_cases": "Crosslinking/co-immunoprecipitation/mass spectrometry (TMT quantitative proteomics) to identify irisin receptors", "type_in_all_cases": "binding", "key": {"[1]": {"target": "T1, MLO-Y4 cell surface proteins (Mus musculus, UniProt Q8BFT2)", "T1 construct": "endogenous in cells; host or cells: MLO-Y4", "T1 sequence (Q8BFT2 1-363)": "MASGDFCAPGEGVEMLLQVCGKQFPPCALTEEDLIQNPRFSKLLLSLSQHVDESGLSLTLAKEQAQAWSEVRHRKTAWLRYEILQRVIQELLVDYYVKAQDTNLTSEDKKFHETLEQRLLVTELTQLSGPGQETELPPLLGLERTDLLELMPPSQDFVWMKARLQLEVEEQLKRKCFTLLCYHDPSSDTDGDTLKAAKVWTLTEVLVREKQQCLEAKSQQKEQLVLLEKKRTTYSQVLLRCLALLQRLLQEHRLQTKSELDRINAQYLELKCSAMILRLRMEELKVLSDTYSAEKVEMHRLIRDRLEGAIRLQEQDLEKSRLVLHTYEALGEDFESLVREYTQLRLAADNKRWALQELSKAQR", "settings": "co-precipitated protein Haus4 (HAUS4_MOUSE)", "how_it_was_run": "(§1)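 Relative protein abundance came from 6-plex TMT MS3 quantitation on an Orbitrap Fusion Lumos, after in-gel trypsin digestion of Coomassie-stained SDS-PAGE lanes. Input was a Ni-NTA pulldown (250 mM imidazole elution) of lysates from murine MLO-Y4 cells. These cells were treated on ice with His-tagged irisin or adipsin (10 nM, 20 min) in serum-free medium, then crosslinked with 1.5 mM DTSSP for 30 min.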"}, "[2]": {"target": "T2, MLO-Y4 cell surface proteins (Mus musculus, UniProt Q6NWW9)", "T2 construct": "endogenous in cells; host or cells: MLO-Y4", "T2 sequence (Q6NWW9 whole entry, the tested form may be a part)": "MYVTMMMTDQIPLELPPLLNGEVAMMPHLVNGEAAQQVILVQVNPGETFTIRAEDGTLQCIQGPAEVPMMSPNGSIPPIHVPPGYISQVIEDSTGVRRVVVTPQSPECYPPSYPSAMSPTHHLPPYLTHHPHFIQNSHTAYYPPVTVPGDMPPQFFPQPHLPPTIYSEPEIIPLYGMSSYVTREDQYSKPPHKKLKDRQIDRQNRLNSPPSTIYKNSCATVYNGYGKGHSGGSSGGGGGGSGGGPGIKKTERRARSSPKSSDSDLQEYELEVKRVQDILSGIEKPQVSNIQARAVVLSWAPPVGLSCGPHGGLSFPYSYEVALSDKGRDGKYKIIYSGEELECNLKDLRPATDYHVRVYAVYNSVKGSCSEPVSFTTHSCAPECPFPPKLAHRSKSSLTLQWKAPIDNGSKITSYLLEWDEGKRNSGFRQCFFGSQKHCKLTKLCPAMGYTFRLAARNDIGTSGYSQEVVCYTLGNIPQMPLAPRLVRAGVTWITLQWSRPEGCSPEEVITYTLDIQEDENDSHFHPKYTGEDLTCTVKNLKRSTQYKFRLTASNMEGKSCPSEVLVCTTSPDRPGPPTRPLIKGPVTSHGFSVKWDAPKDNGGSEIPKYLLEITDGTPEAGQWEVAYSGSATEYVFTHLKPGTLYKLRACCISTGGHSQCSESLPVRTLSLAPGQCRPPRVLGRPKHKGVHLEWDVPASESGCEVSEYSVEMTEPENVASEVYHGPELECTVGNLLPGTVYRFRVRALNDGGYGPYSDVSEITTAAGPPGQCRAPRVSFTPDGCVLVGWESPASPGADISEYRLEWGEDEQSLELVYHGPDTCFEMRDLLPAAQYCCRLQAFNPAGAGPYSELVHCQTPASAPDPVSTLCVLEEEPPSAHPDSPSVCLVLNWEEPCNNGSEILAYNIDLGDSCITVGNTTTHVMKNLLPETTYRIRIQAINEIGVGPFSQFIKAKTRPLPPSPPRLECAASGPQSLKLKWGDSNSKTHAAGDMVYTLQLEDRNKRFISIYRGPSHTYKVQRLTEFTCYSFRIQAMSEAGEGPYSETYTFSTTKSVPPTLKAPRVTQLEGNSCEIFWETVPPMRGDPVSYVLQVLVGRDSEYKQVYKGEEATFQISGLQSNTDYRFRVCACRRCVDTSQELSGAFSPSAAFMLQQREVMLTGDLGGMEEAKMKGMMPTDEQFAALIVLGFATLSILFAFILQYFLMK", "settings": "TMT ratio, Fndc3b Fibronectin type III domain-containing protein 3B", "how_it_was_run": "as §1"}, "[3]": {"target": "T3, MLO-Y4 cell surface proteins (Mus musculus, UniProt E9Q557)", "T3 construct": "endogenous in cells; host or cells: MLO-Y4", "T3 sequence (E9Q557 whole entry)": "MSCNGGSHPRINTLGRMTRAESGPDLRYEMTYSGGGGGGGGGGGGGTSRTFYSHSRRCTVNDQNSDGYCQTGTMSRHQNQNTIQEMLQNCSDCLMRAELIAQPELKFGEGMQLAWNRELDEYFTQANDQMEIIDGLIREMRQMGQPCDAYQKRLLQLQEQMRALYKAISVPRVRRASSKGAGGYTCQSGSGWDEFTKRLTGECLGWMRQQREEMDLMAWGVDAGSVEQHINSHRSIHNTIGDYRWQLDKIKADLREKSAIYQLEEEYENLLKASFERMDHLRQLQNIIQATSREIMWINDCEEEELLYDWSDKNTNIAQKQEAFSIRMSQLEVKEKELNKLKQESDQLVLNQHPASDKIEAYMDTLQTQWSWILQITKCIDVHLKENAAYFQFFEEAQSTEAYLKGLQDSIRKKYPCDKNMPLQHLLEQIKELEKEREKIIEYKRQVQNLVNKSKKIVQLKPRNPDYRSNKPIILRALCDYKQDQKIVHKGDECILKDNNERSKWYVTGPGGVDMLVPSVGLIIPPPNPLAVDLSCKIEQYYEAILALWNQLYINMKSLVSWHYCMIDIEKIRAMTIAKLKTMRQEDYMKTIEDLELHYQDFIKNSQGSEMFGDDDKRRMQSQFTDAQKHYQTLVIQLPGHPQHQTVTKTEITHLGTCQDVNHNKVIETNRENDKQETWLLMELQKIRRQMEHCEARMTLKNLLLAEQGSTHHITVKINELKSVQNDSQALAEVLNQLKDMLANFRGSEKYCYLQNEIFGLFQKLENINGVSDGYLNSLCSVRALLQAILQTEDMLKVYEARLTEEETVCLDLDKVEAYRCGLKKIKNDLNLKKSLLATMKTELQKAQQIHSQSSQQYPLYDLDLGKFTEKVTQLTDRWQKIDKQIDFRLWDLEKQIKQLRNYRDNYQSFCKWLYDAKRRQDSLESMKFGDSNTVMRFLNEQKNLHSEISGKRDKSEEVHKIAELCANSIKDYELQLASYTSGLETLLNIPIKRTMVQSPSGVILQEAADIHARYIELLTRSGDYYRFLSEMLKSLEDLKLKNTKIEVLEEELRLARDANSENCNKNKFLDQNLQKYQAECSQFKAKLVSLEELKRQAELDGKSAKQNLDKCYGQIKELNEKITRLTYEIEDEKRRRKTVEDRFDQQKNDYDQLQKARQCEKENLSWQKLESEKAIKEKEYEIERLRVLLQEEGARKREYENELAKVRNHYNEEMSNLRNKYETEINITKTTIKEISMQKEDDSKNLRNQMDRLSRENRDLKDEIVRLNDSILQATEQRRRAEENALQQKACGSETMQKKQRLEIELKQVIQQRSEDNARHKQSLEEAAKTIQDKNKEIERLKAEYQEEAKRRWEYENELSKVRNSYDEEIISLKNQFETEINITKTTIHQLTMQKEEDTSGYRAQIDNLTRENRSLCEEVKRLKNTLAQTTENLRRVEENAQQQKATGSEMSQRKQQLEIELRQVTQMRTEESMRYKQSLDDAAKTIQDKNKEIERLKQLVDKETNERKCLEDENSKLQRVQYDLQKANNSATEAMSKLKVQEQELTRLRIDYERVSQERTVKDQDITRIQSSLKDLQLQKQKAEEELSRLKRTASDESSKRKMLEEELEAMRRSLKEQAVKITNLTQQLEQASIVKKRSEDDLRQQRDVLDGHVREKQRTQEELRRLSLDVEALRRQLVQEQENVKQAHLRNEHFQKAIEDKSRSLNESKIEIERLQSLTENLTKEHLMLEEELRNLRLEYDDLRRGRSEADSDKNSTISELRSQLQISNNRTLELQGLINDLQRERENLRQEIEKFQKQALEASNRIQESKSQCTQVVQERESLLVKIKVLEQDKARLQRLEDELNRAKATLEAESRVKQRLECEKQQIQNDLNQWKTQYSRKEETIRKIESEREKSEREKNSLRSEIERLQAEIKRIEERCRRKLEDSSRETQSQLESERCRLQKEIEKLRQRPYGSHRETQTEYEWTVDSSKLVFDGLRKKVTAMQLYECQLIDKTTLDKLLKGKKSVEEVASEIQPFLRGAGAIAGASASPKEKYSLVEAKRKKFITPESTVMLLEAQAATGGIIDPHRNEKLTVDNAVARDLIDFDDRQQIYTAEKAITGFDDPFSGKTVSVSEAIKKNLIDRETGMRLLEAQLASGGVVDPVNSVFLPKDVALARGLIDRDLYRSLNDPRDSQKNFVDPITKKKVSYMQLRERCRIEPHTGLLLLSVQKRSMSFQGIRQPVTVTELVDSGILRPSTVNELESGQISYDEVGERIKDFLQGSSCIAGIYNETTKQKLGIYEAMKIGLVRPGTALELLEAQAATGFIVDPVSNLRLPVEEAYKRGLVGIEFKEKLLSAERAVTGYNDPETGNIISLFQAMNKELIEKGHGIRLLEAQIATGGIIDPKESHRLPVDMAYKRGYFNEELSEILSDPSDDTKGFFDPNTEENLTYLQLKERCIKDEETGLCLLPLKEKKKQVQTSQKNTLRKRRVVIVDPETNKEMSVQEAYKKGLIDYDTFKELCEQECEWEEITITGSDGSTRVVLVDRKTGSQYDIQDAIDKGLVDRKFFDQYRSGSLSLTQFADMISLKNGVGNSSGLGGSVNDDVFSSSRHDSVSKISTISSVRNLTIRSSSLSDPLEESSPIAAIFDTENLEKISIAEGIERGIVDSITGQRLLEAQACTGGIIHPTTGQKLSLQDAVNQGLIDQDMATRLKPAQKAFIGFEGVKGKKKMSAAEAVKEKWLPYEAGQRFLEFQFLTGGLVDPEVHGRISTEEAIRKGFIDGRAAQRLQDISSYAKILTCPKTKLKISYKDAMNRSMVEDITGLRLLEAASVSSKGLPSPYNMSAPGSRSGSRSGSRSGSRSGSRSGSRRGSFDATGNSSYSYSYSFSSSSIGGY", "settings": "co-precipitated protein Dsp (DESP_MOUSE)", "how_it_was_run": "as §1"}, "[4]": {"target": "T4, MLO-Y4 cell surface proteins (Mus musculus, UniProt Q9DCW4)", "T4 construct": "endogenous in cells; host or cells: MLO-Y4", "T4 sequence (Q9DCW4 1-255)": "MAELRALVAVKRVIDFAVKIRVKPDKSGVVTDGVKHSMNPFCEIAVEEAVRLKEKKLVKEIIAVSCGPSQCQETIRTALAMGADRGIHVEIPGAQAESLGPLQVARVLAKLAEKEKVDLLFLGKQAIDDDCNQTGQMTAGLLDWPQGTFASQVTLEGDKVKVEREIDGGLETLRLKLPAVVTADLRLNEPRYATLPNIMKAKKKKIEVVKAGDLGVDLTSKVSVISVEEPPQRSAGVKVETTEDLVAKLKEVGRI", "settings": "co-precipitated protein Etfb (ETFB_MOUSE)", "how_it_was_run": "as §1"}}}
{"molecule": "B1", "values": [{"measurement": "TMT signal-to-noise ratio", "setting": "[1]", "result": 230.984}, {"measurement": "irisin/adipsin TMT signal-to-noise ratio", "setting": "[1]", "result": 0.446}, {"measurement": "irsin/adipsin", "setting": "[2]", "result": 2.88}, {"measurement": "TMT signal-to-noise ratio", "setting": "[3]", "result": 2.707}, {"measurement": "irisin/adipsin TMT signal-to-noise ratio", "setting": "[3]", "result": 0.034}, {"measurement": "TMT signal-to-noise ratio", "setting": "[4]", "result": 409.026}, {"measurement": "irisin/adipsin TMT signal-to-noise ratio", "setting": "[4]", "result": 0.560}]}
